Measurements taken from US8932880B2, “Method for the direct measure of molecular interactions by detection of light reflected from multilayered functionalized dielectrics” (ProXentia s.r.l., priority 2009, dated 2015).

Biological target: T1, Avidin (Gallus gallus, UniProt P02701)
T1 construct: purchased Sigma-Aldrich A9275
Experiment: Reflected light intensity from an antireflective SiO2-coated prism, He-Ne laser and photodiode (Example 2): binding to adsorbed Avidin
Details: 632.8 nm laser; flow 10 microliters/minute; phosphate buffer pH 7.4 + 150 millimolar NaCl; BSA 0.4 micromolar, BSA-biotin 0.5 micromolar
From the text: A layer of silicon oxide (SiO2) was deposed by sputtering on one side of a glass prism, as described in Example 1. The prism is placed in a flow cell so that the coated surface is in contact with the aqueous solution. A light beam from a 5 milliwatts He—Ne laser is sent to the interface between the aqueous solution and the prism and the reflected light is detected by a photodiode that converts the light intensity in an electrical signal. Through the cell is promoted a flow of 10 microliters/minute of an aqueous solution containing sodium phosphate buffer pH 7.4+150 millimolar NaCl (hereafter called “phosphate buffer”) in the following order:
b) protein Avidin (marketed by Sigma-Aldrich, prod. No. A9275) at a concentration of 3 micromolar;
d) protein Bovine Serum Albumin, BSA (marketed by Sigma-Aldrich, prod. No. A6003) at a concentration of 0.4 micromolar;
f) protein BSA conjugated to biotin (marketed by Sigma-Aldrich, prod. No. A8549) at a concentration of 0.5 micromolar;
In FIG. 5 the measured reflected intensity is reported as a function of time. The value of the reflected light intensity measured before the step a) corresponds to a reflectivity of 3.2·10^−6. […] Unlike in Example 1, in this case the adhesion molecules on the surface causes an increase in the intensity of reflected light. […]

T1 sequence (P02701 25-152): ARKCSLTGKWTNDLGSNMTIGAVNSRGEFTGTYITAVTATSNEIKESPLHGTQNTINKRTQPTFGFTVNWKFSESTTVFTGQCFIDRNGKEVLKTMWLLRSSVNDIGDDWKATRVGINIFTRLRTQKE

variation of reflected intensity on flowing the solution over adsorbed Avidin: no further variation is observed
Substance: Bovine Serum Albumin [BSA protein]
